Measured values: US20150064204A1 (Amgen, published 2015)
Substitutions are numbered along the chain they refer to.

T1: human GITR (human, UniProt Q9Y5U5 26-241)
T1 construct: also called TNFRSF18; Glucocorticoid-induced TNFR-related gene
T1 sequence: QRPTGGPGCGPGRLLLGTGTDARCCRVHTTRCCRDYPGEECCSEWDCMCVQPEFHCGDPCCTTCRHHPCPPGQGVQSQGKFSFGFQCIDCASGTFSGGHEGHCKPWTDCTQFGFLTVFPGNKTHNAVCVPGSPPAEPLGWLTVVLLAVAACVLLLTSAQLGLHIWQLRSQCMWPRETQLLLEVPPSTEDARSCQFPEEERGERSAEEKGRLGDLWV

B1: 7A10 (antibody, human IgG1, kappa, V domains shown)
VH: QVQLVESGGGVVQPGRSLRLSCAASGFTFSSYGMHWVRQAPGKGLEWMAVIWYVGSNKYYADSVKGRFTISRDNSKNTLYLQMNSLSAEDTAVYYCARGGELGRDYYSGMDVWGQGTTVTVSS
VL: DIQMTQSPSSLSASVGDRVTITCRASQGIRNDLGWYQQKPGKAPKRLIYAASSLQSGVPSRFSGSGSGTEFTLTISSLQPEDFATYYCQQHNSYPWTFGQGTKVEIKR
notes: Parental fully human antibody; also called Ab18; SS-10944
B2: 33C9v1 (antibody, human IgG1, kappa, V domains shown)
VH: B1 VH with L4V, M48V, A49S, V54E, S87R, E101L, R104Y, D105Y, S108Y
VL: B1 VL with R46L, A50D, Q89L, N92H
notes: Engineered variant; also called Ab50; SS-16948
B3: 33C9v4 (antibody, human IgG1, kappa, V domains shown)
VH: B1 VH with L4V, M48V, A49S, V54E, D62E, S87R, E101L, R104Y, D105Y, S108Y
VL: B1 VL with R46L, A50D, Q89L, N92H
notes: Engineered variant; also called Ab53; SS-16950
B4: 33C9v3 (antibody, human IgG1, kappa, V domains shown)
VH: B1 VH with L4V, M48V, A49S, V54E, S63T, S87R, E101L, R104Y, D105Y, S108Y
VL: B1 VL with A50D, Q89L, N92H
notes: Engineered variant; also called Ab52; SS-16949
B5: 33C9v5 (antibody, human IgG1, kappa, V domains shown)
VH: B1 VH with L4V, M48V, A49S, V54E, S63T, S87R, E101L, R104Y, D105Y, S108Y
VL: B1 VL with R46L, A50D, Q89L, N92H
notes: Engineered variant; also called Ab54; SS-16951
B6: 7A10v5 (antibody, human IgG1, kappa, V domains shown)
VH: B1 VH with D62E, S87R
VL: B1 VL with R46L
notes: Engineered variant; also called Ab43; SS-16941
B7: 7A10v4 (antibody, human IgG1, kappa, V domains shown)
VH: B1 VH with S63T, S87R
VL: B1 VL
notes: Engineered variant; also called Ab42; SS-16940
B8: 41G5v3 (antibody, human IgG1, kappa, V domains shown)
VH: B1 VH with M48V, V54P, S63T, S87R, D105Y, S108Y
VL: B1 VL with I21V, Q89L, S93N, E105D
notes: Engineered variant; also called Ab57; SS-16953
B9: 41G5v1 (antibody, human IgG1, kappa, V domains shown)
VH: B1 VH with M48V, V54P, S87R, D105Y, S108Y
VL: B1 VL with I21V, R46L, Q89L, S93N, E105D
notes: Engineered variant; also called Ab55; SS-16952
B10: 9H6v1 (antibody, human IgG1, kappa, V domains shown)
VH: B1 VH with A23V, V37I, M48V, V54E, S87R, E101R, R104K
VL: B1 VL with A51T, Q89L, S93T
notes: Engineered variant; also called Ab44; SS-16943
B11: 9H6v2 (antibody, human IgG1, kappa, V domains shown)
VH: B1 VH with A23V, V37I, M48V, V54E, S87R, E101R, R104K
VL: B1 VL with R46L, A51T, Q89L, S93T
notes: Engineered variant; also called Ab45; SS-16944
B12: 9H6 (antibody, human IgG1, kappa, V domains shown)
VH: B1 VH with A23V, V37I, M48V, V54E, S87R, E101R, R104K
VL: B1 VL with K45N, A51T, Q89L, S93T
notes: Parental fully human antibody; also called Ab19; SS-10945
B13: 9H6v5 (antibody, human IgG1, kappa, V domains shown)
VH: B1 VH with A23V, V37I, M48V, V54E, D62E, S87R, E101R, R104K
VL: B1 VL with R46L, A51T, Q89L, S93T
notes: Engineered variant; also called Ab48; SS-16946
B14: 7A10v2 (antibody, human IgG1, kappa, V domains shown)
VH: B1 VH with S87R
VL: B1 VL with R46L
notes: Engineered variant; also called Ab40; SS-16938
B15: 33C9 (antibody, human IgG1, kappa, V domains shown)
VH: B1 VH with L4V, M48V, A49S, V54E, S87R, E101L, R104Y, D105Y, S108Y
VL: B1 VL with A50D, Q89L, N92H
notes: Parental fully human antibody; also called Ab2; SS-12413
B16: 7A10v3 (antibody, human IgG1, kappa, V domains shown)
VH: B1 VH with D62E, S87R
VL: B1 VL
notes: Engineered variant; also called Ab41; SS-16939
B17: 41G5v5 (antibody, human IgG1, kappa, V domains shown)
VH: B1 VH with M48V, V54P, S63T, S87R, D105Y, S108Y
VL: B1 VL with I21V, R46L, Q89L, S93N, E105D
notes: Engineered variant; also called Ab59; SS-16955
B18: 41G5 (antibody, human IgG1, kappa, V domains shown)
VH: B1 VH with M48V, V54P, S87R, D105Y, S108Y
VL: B1 VL with I21V, Q89L, S93N, E105D
notes: Parental fully human antibody; also called Ab7; SS-12428
B19: 9H6v6 (antibody, human IgG1, kappa, V domains shown)
VH: B1 VH with A23V, V37I, M48V, V54E, S63T, S87R, E101R, R104K
VL: B1 VL with R46L, A51T, Q89L, S93T
notes: Engineered variant; also called Ab49; SS-16947
B20: 9H6v4 (antibody, human IgG1, kappa, V domains shown)
VH: B1 VH with A23V, V37I, M48V, V54E, S63T, S87R, E101R, R104K
VL: B1 VL with A51T, Q89L, S93T
notes: Engineered variant; also called Ab47; SS-16945
B21: 41G5v4 (antibody, human IgG1, kappa, V domains shown)
VH: B1 VH with M48V, V54P, D62E, S87R, D105Y, S108Y
VL: B1 VL with I21V, R46L, Q89L, S93N, E105D
notes: Engineered variant; also called Ab58; SS-16954
B22: 5H7 (antibody, human IgG1, kappa, V domains shown)
VH: QVQLQESGPGLVKPSQTLSLTCTVSGGSISSGGYFWSWIRQHPGKGLEWIGYIYYSGTTYYNPSLKSRVTISIDTSKNHFSLKLSSVTAADTAVYYCARDLFYYDSSGPRGFDPWGQGTLVTVSS
VL: EIVLTQSPGTLSLSPGERATLSCRASQTVSSNYLAWYQQKPGQAPRLLIYGSSTRATGIPDRFSGSGSGTDFTLTISRLEPEDFAVYYCQQYDSSPWTFGQGTKVEIKR
notes: Parental fully human antibody; also called Ab17; SS-10943
B23: 5H7v3 (antibody, human IgG1, kappa, V domains shown)
VH: B22 VH with Q16E, H42P, H79Q, D113E
VL: B22 VL
notes: Engineered variant; also called Ab27; SS-16913
B24: 5H7v1 (antibody, human IgG1, kappa, V domains shown)
VH: B22 VH with Q16E, H42P, H79Q, D105E
VL: B22 VL
B25: 5H7v13 (antibody, human IgG1, kappa, V domains shown)
VH: B22 VH with Q16E, H42P, H79Q, S106T
VL: B22 VL with D93E
B26: 5H7v17 (antibody, human IgG1, kappa, V domains shown)
VH: B22 VH with Q16E, H42P, H79Q, S106T
VL: B22 VL with S94T
B27: 5H7v10 (antibody, human IgG1, kappa, V domains shown)
VH: B22 VH with Q16E, H42P, H79Q
VL: B22 VL with D93E
B28: 5H7v5 (antibody, human IgG1, kappa, V domains shown)
VH: B22 VH with Q16E, H42P, H79Q, D105E, D113E
VL: B22 VL
B29: 5H7v11 (antibody, human IgG1, kappa, V domains shown)
VH: B22 VH with Q16E, H42P, H79Q
VL: B22 VL with S94T

target: T1, human GITR; test: flow cytometry on activated human T cells

| Binder | EC50 |
| --- | --- |
| B1 | 0.067 µg/mL |
| B2 | 0.078 µg/mL |
| B3 | 0.082 µg/mL |
| B4 | 0.056 µg/mL |
| B5 | 0.068 µg/mL |
| B6 | 0.783 µg/mL |
| B7 | 0.002 µg/mL |
| B8 | 0.06 µg/mL |
| B9 | 0.06 µg/mL |
| B10 | 0.144 µg/mL |
| B11 | 0.423 µg/mL |
| B12 | 0.134 µg/mL |
| B13 | 0.38 µg/mL |
| B14 | 0.861 µg/mL |
| B15 | 0.06 µg/mL |
| B16 | 0.003 µg/mL |
| B17 | 0.064 µg/mL |
| B18 | 0.055 µg/mL |
| B19 | 0.411 µg/mL |
| B20 | 0.095 µg/mL |
| B21 | 0.068 µg/mL |
| B22 | 0.303 µg/mL |
| B23 | 0.293 µg/mL |

target: T1, human GITR; test: cell-based or functional assay

| Binder | Proliferation (Fold over CD3) | Proliferation EC50 |
| --- | --- | --- |
| B1 | 3.4 fold over CD3 | 12 ng/mL |
| B2 | 2.1 fold over CD3 | 18 ng/mL |
| B3 | 2.6 fold over CD3 | 17 ng/mL |
| B4 | 3.1 fold over CD3 | 25 ng/mL |
| B5 | 2.5 fold over CD3 | 18 ng/mL |
| B6 | 0.6 fold over CD3 | 20 ng/mL |
| B7 | 60 fold over CD3 | 6 ng/mL |
| B8 | 3.4 fold over CD3 | 7 ng/mL |
| B9 | 2.9 fold over CD3 | 17 ng/mL |
| B10 | 3.2 fold over CD3 | 4 ng/mL |
| B11 | 2.2 fold over CD3 | 19 ng/mL |
| B12 | 3 fold over CD3 | 7 ng/mL |
| B13 | 1.9 fold over CD3 | 11 ng/mL |
| B14 | 0.7 fold over CD3 | 43 ng/mL |
| B15 | 2.7 fold over CD3 | 10 ng/mL |
| B16 | 55 fold over CD3 | 46 ng/mL |
| B17 | 2.5 fold over CD3 | 12 ng/mL |
| B18 | 3.7 fold over CD3 | 4 ng/mL |
| B19 | 1.5 fold over CD3 | 11 ng/mL |
| B20 | 3.3 fold over CD3 | 7 ng/mL |
| B21 | 2.2 fold over CD3 | 15 ng/mL |
| B22 | 3.4 fold over CD3 | 8 ng/mL |
| B24 | 1 fold over CD3 | 33 ng/mL |
| B25 | 1.2 fold over CD3 | 113 ng/mL |
| B26 | 3 fold over CD3 | 24 ng/mL |
| B27 | 0.6 fold over CD3 | 39 ng/mL |
| B23 | 3.2 fold over CD3 | 15 ng/mL |
| B28 | 1.4 fold over CD3 | 21 ng/mL |
| B29 | 2 fold over CD3 | 32 ng/mL |
